In patent publication EP4578463A1, “ENDO-180 TARGETED ANTIBODY-DRUG CONJUGATES” (Oncomatryx Biopharma, S.L., priority 2023, dated 2025):

Columns and labels:
[1] = tested on: IC9LC11 non-small cell lung cancer patient-derived xenograft; assay: Antitumor activity in IC9LC11 non-small cell lung cancer patient-derived xenograft model; format: in vivo, immunodeficient female mice; details: 5 mg/kg; control group end day, D28
[2] = biological target: T1, human Endo180-moFc domains I-III (aa 31-370) (human, UniProt Q9UBG0 31-370); assay: ELISA, immobilized human Endo180-mouse Fc DI-III
T1 construct: also called huEndo180 (DI-III); huEndo180-moFc DI-III; not shown: murine Fc domain
T1 sequence: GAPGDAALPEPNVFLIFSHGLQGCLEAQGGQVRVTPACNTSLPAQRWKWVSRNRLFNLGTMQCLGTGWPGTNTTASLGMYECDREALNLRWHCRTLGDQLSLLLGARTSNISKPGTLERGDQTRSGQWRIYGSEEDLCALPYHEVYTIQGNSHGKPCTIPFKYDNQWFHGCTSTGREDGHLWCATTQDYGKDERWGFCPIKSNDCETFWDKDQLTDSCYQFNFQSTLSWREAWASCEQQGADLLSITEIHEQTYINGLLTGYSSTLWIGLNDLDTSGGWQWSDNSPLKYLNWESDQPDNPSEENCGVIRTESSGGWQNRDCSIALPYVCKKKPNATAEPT

[3] = biological target: T2, Endo180 on cells (Endo180-expressing HT1080-WT cells; Endo180-transfected HEK293-Endo180 cells) (UniProt Q9UBG0 31-1479); assay: flow cytometry on HT1080-WT cells
T2 construct: whole, on cells; One molecule is used for the endogenous protein on HT1080-WT and the transfected protein on HEK293-Endo180; also called uPARAP
T2 sequence (looked up): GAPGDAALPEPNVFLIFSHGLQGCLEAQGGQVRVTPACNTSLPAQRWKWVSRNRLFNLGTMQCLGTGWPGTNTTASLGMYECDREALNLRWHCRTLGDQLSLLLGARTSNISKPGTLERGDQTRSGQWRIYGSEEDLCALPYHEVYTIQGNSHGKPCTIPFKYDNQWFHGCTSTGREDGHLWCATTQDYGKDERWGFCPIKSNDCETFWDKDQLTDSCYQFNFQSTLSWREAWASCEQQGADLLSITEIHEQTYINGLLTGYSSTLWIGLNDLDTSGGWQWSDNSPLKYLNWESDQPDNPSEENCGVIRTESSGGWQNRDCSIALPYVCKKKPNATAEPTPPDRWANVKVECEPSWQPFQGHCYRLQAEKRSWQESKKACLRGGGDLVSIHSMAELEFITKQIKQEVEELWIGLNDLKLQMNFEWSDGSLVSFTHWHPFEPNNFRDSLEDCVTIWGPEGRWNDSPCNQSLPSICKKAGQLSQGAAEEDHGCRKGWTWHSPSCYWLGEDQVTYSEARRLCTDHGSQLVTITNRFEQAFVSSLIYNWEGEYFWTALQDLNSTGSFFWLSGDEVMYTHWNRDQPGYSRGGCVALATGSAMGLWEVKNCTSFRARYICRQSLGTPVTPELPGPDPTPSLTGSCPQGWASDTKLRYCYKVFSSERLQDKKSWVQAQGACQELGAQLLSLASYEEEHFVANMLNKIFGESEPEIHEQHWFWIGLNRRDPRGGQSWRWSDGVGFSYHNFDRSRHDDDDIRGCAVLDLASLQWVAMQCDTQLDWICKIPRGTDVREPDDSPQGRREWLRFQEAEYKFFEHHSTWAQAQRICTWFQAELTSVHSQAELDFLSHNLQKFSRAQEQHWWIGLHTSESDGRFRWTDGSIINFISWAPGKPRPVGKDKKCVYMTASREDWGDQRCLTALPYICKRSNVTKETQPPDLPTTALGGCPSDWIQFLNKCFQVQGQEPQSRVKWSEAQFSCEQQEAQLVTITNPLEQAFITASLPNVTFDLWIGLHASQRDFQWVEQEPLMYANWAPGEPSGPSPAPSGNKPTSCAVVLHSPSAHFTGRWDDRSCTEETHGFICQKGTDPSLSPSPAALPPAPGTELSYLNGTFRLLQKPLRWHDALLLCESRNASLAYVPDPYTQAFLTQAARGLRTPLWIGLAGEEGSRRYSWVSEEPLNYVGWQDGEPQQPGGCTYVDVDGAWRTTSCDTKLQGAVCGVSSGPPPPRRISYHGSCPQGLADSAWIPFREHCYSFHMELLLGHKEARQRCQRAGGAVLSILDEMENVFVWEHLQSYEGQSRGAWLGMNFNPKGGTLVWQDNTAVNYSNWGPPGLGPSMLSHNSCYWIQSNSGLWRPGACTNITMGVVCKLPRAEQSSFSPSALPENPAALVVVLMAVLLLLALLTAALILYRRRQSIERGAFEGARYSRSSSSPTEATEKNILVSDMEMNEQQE

[4] = biological target: T3, human Endo180-moFc domains I-IV (aa 31-513) (human, UniProt Q9UBG0 31-513); assay: ELISA, immobilized human Endo180-mouse Fc DI-IV
T3 construct: also called huEndo180 (DI-IV); huEndo180-moFc DI-IV; not shown: murine Fc domain
T3 sequence: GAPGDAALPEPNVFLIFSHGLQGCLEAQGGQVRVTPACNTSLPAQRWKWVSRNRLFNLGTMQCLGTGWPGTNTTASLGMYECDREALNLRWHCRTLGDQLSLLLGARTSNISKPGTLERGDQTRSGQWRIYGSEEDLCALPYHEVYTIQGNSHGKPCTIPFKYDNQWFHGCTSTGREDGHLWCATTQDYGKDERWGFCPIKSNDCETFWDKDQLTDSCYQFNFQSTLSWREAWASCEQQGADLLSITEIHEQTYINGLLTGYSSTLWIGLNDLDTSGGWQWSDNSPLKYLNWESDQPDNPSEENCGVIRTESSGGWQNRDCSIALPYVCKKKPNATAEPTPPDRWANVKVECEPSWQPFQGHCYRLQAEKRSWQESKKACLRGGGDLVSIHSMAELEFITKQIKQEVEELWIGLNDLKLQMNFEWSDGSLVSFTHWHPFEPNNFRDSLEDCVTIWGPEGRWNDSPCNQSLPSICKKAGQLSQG

[5] = biological target: T2, Endo180 on cells (Endo180-expressing …); assay: flow cytometry on HEK293-Endo180 cells

Molecule: CC(=O)O[C@@]12CO[C@@H]1C[C@H](O)[C@@]1(C)C(=O)[C@H](O)C3=C(C)[C@@H](OC(=O)[C@H](O)[C@@H](NC(=O)OC(C)(C)C)c4ccccc4)C[C@@](O)([C@@H](OC(=O)c4ccccc4)[C@H]21)C3(C)C [Docetaxel]
- tolerability based on body weight data and clinical observations (mouse, in vivo): well tolerated, except in one mouse
- relative weight loss (one mouse, at the group end day): 16.0%
- TGI [1]: 73%

B1: IgG G7V Δab (antibody, V domains shown)
VH: EVQLVESGGGLVKPGGSLRLSCAASGFTFSSYSMNWVRQAPGKGLEWVANIKPDGSERHSVDSVKGRFTISRDNSKNSLYLQMNSLRAEDTAVYYCARPGAGRLDYWGQGTLVTVSS
VL: SSELTQDPAVSVALGQTVRITCQGDSLRSYYASWYQQKPGQAPVLVVYGKNNRPSGIPDRFSGSSSGNTASLTITGAQAEDEADYYCNSRDSSGNPWAFGGGTKVTVL
notes: also called IgG G7V with a silent Fc
- EC50 [2]: 0.45 nM
- EC50 [3]: 3.7 nM
- EC50 [4]: 0.53 nM

B2: OMTX807 ADC (antibody-drug conjugate) (antibody, human IgG1, lambda, V domains shown)
VH: B1 VH
VL: SSELTQDPAVSVALGQTVRITCQGDSLRSYYASWYQQKPGQAPVLVVYGKNNRPSGIPDRFSGSSSGNTASLTITGAQAEDEADYYCNSRDSSGNPWAFGGGTKVTVLG
modifications: drug-linker GGFG-DXd on cysteine residues, non-specific site (sites not given); drug-linker GGFG-DXd on cysteine residues, non-specific site, DAR 8.05
notes: antibody-drug conjugate
- EC50 [5]: 0.7 nM

B3: OMTX707 antibody-drug conjugate (antibody, human IgG1, lambda, V domains shown)
VH: B1 VH
VL: B2 VL
modifications: drug-linker TAM558 on cysteine residues, non-site directed (sites not given); drug-linker TAM558 (cytolysin-linker maleimide caproyl vcPABA) on cysteine residues, non-site directed, DAR 3.79
notes: antibody-drug conjugate; also called OMTX707 ADC
- EC50 [5]: 1.3 nM
